Measurements taken from PMC12145424, “Structural insights into tRNA recognition of the human FTSJ1-THADA complex” (Communications Biology, 2025).

Biological target: T1, Human THADA (FLAG- and streptavidin-binding-sequence-tagged, co-expressed with FTSJ1) (human, UniProt Q6YHU6 1-1953)
T1 construct: THADA, human; gene PCR-amplified and cloned into a modified pcDNA3.4 vector; no TEV cleavage step is described; also called Trm732 (yeast name); not shown: FLAG, N-terminal, kept
Assay: SEC; FTSJ1 and THADA co-expressed in HEK293F, purified on anti-FLAG beads, then HiLoad 16/600 Superdex 200pg in 20 mM Tris-HCl pH 7.5, 150 mM NaCl, 2 mM DTT; fractions analysed by SDS-PAGE
Details: both partners purified

T1 sequence (Q6YHU6 whole entry): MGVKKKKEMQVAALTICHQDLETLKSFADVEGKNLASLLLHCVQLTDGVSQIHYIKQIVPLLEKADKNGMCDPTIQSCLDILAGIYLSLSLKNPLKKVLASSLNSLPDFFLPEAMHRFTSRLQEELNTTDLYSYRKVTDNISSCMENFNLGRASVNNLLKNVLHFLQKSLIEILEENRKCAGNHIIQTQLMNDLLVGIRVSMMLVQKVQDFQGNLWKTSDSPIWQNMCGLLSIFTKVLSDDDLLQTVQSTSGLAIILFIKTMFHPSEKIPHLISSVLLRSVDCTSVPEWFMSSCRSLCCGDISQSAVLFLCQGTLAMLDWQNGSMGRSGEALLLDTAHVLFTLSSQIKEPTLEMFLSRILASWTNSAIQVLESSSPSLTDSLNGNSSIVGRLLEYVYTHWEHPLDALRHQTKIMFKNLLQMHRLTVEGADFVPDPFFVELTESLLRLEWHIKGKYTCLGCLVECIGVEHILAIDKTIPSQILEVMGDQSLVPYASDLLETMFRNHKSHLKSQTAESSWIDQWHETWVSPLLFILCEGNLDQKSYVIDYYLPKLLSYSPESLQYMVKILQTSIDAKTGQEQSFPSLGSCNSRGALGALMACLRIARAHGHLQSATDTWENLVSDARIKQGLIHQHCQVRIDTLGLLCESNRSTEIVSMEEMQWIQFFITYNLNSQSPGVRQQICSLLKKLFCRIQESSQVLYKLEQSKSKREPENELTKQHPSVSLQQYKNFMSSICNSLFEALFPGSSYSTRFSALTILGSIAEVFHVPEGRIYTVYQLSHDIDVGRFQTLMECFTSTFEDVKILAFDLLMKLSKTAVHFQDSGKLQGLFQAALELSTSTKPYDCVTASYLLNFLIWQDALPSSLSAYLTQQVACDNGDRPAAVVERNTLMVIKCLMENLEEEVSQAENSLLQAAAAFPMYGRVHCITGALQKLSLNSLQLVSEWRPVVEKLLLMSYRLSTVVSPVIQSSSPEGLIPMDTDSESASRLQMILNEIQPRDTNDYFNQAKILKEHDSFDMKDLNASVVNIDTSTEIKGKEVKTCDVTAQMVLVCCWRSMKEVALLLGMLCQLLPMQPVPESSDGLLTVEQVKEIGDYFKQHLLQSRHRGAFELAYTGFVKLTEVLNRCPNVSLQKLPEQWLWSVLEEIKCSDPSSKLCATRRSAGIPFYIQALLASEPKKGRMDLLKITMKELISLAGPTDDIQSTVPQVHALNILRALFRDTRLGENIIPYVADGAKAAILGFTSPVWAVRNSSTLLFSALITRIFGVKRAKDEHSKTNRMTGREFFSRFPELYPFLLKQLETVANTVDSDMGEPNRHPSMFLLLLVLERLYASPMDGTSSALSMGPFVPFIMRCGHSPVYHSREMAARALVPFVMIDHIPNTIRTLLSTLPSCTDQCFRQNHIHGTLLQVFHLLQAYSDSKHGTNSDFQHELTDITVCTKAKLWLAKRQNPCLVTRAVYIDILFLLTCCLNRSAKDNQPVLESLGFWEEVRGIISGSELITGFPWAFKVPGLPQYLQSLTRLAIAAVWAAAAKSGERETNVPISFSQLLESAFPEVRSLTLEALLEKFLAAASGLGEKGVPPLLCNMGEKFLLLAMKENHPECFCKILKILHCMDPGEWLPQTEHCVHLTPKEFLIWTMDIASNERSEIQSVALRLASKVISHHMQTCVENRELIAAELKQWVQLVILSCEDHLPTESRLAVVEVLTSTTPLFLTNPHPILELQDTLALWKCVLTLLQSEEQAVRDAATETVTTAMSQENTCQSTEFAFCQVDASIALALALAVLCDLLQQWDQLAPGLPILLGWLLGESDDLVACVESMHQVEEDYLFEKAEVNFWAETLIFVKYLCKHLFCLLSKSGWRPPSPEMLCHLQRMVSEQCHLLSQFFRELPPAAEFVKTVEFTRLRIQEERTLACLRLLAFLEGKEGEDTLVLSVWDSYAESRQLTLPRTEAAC

B1: Human FTSJ1 (FLAG-tagged, co-expressed with THADA) (enzyme)
chain: MGRTSKDKRDVYYRLAKENGWRARSAFKLLQLDKEFQLFQGVTRAVDLCAAPGSWSQVLSQKIGGQGSGHVVAVDLQAMAPLPGVVQIQGDITQLSTAKEIIQHFKGCPADLVVCDGAPDVTGLHDVDEYMQAQLLLAALNIATHVLKPGGCFVAKIFRGRDVTLLYSQLQVFFSSVLCAKPRSSRNSSIEAFAVCQGYDPPEGFIPDLSKPLLDHSYDPDFNQLDGPTRIIVPFVTCGDLSSYDSDRSYPLDLEGGSEYKYTPPTQPPISPPYQEACTLKRKGQLAKEIRPQDCPISRVDTFPQPLAAPQCHTLLAPEMEDNEMSCSP
notes: FTSJ1, human; gene PCR-amplified and cloned into a modified pcDNA3.4 vector; no TEV cleavage step is described in the purification; also called Trm7 (yeast name); not shown: FLAG, N-terminal, kept
binding result: binds
